Reference: the nanobody polyreactivity screen of Harvey et al. (2022)

Assay: yeast display, Sf9 membrane polyspecificity reagent, FACS + sequencing; frameworks hold sequencing errors
Procedure, shortened: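 Nanobodies from a synthetic yeast display library (Saccharomyces cerevisiae BJ5465), induced 36–48 hours with galactose, were stained 1 hour at 4 °C with 10% biotinylated, detergent-solubilized Sf9 membrane reagent, enriched on streptavidin microbeads, then FACS-sorted. Anti-HA (expression) and streptavidin (reagent binding) fluorescence set low and high (top ~1%) gates. Polyreactivity labels come from the gate of origin. Genes were colony-PCR amplified, MiSeq 2 × 250 sequenced and filtered by CDR length.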

Sequence	polyreactivity (PSR sort gate)
QVQLLETGGGLVQAGVSLRLSSAASGRTFWTNGMGWYRQAPGKERELVASISTSGGRTYYADSVKGRFTISRDNSKNTVYLQMNSLKPEDTAVYYCAARALSHGARYDYWGQGTQVNVSS	high polyreactivity
QVQLVESGGGLVQAGGSLRLSCAASGFIFSGYNMGWYRQAPGKERELVAAITKRGGRTYYADSVKWRFTISRDNAKNTVYLQMNSLKPEDTAVYYCNVDVKVYSDETTDGDYWGQGTQVTVSS	high polyreactivity
QVQLVESGGGLVQAGGSLRLSFAASGLIFGYYTMGWYTQAPGKERELVAAITGIADSTYYADSVKGRFTISRDNAKNTVYLQMNSLKPEDTAVYYCAADKYVAEYDYWGQGTQVTVSS	low polyreactivity
QVQLVESGGGLVQAGGSLRLSCAASGRTFYTNALGWYRQAPGKERELVAVISRGGTTYYADSVKGRFTISRDNAKNTVYLQMNSLKPEDTAVYYCAKQRPSGDSSSQMGSWGQGTQVTVSS	low polyreactivity
QVQLVESGGGLVQAGGSLRLSCAASGFTFSKYAMLWYRQAPGKEREFVAAISSRGGRTYYADSVKGRFTISRDNAKNTVYLQMNSLKPEDTAVYYCAVDVHLVTEYDYWGQGTQVTVSS	high polyreactivity
QVQLVESGGGLVQAGGSLRLSCAASGSTLYYYAMGWYRQAPGKERELVAAITYSGGNTYYADSVKGRFTISRDNAKNTVYFQMNSLKPEDTAVYYCAADDWSSDYIRYEYWGQGTQVTVSS	low polyreactivity
QVQLVDSGGGLVQAGGSLRLSCAASGITFRYYAMGWYRQAPGKERELVAAITRGGRTNYADSVKGRFTISRDNAKNTVYLQKNSLKPEETAVYYCATGRDSNFGNSYYYWGQGTQVTVSS	high polyreactivity
QVQLVESGGGLVQAGGSLRLSCAASGSIFRAYAMGWYRQAPGKEGELVATITSGGRTNYADSVKGRFTISRDNAKNTVYLQMNSLKPEDTAVYYCNADHWLYYGAGYDYWGQGTQVTVSS	low polyreactivity
QVHLVESGGGLVQAGGSHRLSCAASGLNFPPNAMGWYRQAPAKESELVASITRSGGSTYYADSVKGRFTISRDNAKNTVYLQMNSLKRDDTAVYYCAAYLDTSRYGVLYDYWGQGTQVTVSS	low polyreactivity
QGQLEESGGGLVQAGGSLRLSCAASGITFNDYTMGWYRQAPGKEMELVAVITKTGSRTYYADSVKGRFTISRDNAKNTVYLQMNSLKPEDTAVYYCNALYYIHYYQGYGYWGQGTQVTVSS	high polyreactivity
QVQLVESGGGLVQAGGSLRLSCAASGFTFEFYVMGGYSPAPGKERELVAAISTTGGSTYYADSVKGRFTISRDNAKNTVYLQMNSLKPEDTAVYYCAAEYYLWWKSHLWEYGYWGQGTQVTVSS	high polyreactivity
QVQRVESGGGLVQAGGSLRLSCAASGSILFHYAMGWYRQAPGKEREMVAAISRRGGSTYYADSVKGRFSISRDNAKNTVYLQMNSLKPEDTAVYYCAKYPSAYVDSDVTYDMDYWGQGTQVTVSS	low polyreactivity
QVQLVESVGGLVQAGGSLRLICAASGLTFEWYTMGWYRQATGNERELVAVITVSGSSTYYADSVKGRFTISRDNAKNTVYLQMNSLKPEDTAVYYCARKTYYTGDFLGREYGYWGQGTQVTVSS	low polyreactivity
QVQLVESGGGLVQAGGSLRLSCAASGFILAYYAMGWSRQAPGKERELVAAISIGSSTDYADSVKGRFTISRDNAKNTVYLQINSVKPEDTAVYDFAARDYYYEYDYWGQGTQVTVSS	low polyreactivity
QVQLVESGGGLVQAGGSLRLSCAASGSTFSRYAMGWYRQAPGKERELVAAISRGGNTYYADSVKGRFTISRDNAKNTVYLQMNSLKPEDTAVYYCNRYSKLYNTMDYWGQGTQVTVSS	high polyreactivity
QVQLVESGGGLVQAGGSLRLSCAASGSIFYEYAMGWYRKAPGKEREFVAAISSSGGSTYYADSVKGRFTISRDNAKNTVYLQMNSLKPEDTAVYYCATQSSVLSWWYDYWGQGTQVTVSS	low polyreactivity
QVQLVESGGGLVQAGGSLRLSCAASGGIFRYAMGWYRQAPGKEREFVAAITTRGGSTYYADSVKGRFTISRDNAKNTVYLQMNSLKPEDTAVYYCAARPYSGRNKYDYWGQGTQVTVSS	high polyreactivity
QVQLVESGGGLVQAGGSLRLSCAASGSTSYFNVKGWYRQAPGKERELVAAISWSGGSTYADSVKGRFTISRDNAKNTVYLQMNSLKREDTAVYYCNKDYGYVQLRFYGPGYYWGQGTQVTVSS	low polyreactivity
QVQLVESGGGLVQAGGSLRLSCAASGRTFIYYDKGWYRQAPGKERDLVAAIRQRGDNTYYADSVKGSFTISRDNAKNTVYLKMKSLKPDDTAVYFCAAVNYLSYRYGYSWSYPGGGYWGQGTQVTVSS	high polyreactivity
QVQLVESGGGLVQAGGSLRLSCAASGIIFESYAMGSYRQAPGKEREFVAAISSRGGSTYYADSVKGRFTISRDNAKNTVYLQMNSLKPEDTAVYYCAARGYRRTFDYREYDSWGQGTQVTVSS	low polyreactivity
QVQLVESGGGLVQAGGSLRLRCAASGFTSYINAMGWYRQAPGKERELVAGITWSTGNTYYADSVKGRFTISRDNAKNTVYLQMNSLKPEDTAVYYCAADFYVAYVGVQPYWMDYWGQGTEVTVSS	low polyreactivity
QVQLVESGGGLVQAGGSLRLSCAASGSTFQVNAMGWYRQAPGQDRELVAAITYRTGRTYYADSVKGRCTISRDNAKNTGYLQMNSLKPEDTAVYYCAATAHSYYGVGMGYWGQGTQVTVSS	high polyreactivity

Sequence	polyreactivity (PSR sort gate)
QVQLVESGGGLVQAGGSLRLSCAASGSIFGGNAMGWYRQAPGKERELVAAITSRGGSTYYADSVKGRFTISRDNAKNTVYLQMNSLKPEDTAVYYCNALSSGVYLYDYWGQGTQVTVSS	high polyreactivity
QVQLVESGGGLVQAGRSLRLSCGASGFTFGLYAMGWYRQATGKERELVAAITSSGRRTYYADSVKGRYTISRDKAKNTVSLEMNCLKPEDTAVYYFAKQAYDQSPYNYWGQGTQVTVSS	high polyreactivity
QVQLVESGGGLVQAGGSLRLSCAASGSTFTRYAMGWYRQAPGKEREFVAGISWRGGSTYYADSVKGRFTISRDNAKNTVYFQMNSLKPEDTAVYYCAARSFSNIGYHGYGYWGQGTQVTVSW	high polyreactivity
QVQLVESGGGLVQAGGSLRLSCAASGSIFTFNAMGWYRQAPGKERELVASINWSGGSTYYADSVKGRFTISRDNAKNTVYLQMNSLKPEDTAVYYCNKRRNGYGSQFYYPYDYWGQGTQVTVSS	low polyreactivity
QVQLVESGGGLVQAGGSLRLSCAASGSTFWYYGMGWYRQAPGKERELVAAITRGGSTYYADSVKGRFTISRDNAKNTVYLQMNSLKPEDTAVYYCAAGISVRWSPSYYYWGQGTQVTVSS	high polyreactivity
QVQLVESGGGLVQAGGSLRLSCAASGSTFVGNAMGWYRQAPGKERELVAAITGGGGSTYYADSVKGRFTISRDNAKNTVYLQMNSLKPEDTAVYYCNKKLQRRSWYDYWGQGTQVTVSS	low polyreactivity
QVQLVESGGGLVQAGGSLRLSCAASGRTFRYNAMGWSRQAPGKERELVADITKSGGTTYYADSVKGRFTISRDNAKNTVYLQMNSLKPEDTAVYYCNAYRVVHPWEYDYWGQGTQVTVSS	high polyreactivity
QVQLVESGGGLVQAGGSLRLSCAASGSTFASYAMGWNRQAPGKEREFVAAISRSGGSTYYADSVKWRFTISRDNAKNTVYLQMNSLKPEDTAVYYCAARSPSADEYYFWGQGTQVTVSS	low polyreactivity
QVQLVESGGCLVQAGGSLRLSCAASGSIITWNAMVWYRQAPGKERELVAAIDWDGGSTYYADSVKGRFTISRDNAKNTVYLQMHILKPEDTAVYYCAATYGWYTVRYPSGHYYYWGQGTQVTVSS	low polyreactivity
QVQLVESGGGLVQAGGSLRLSCAASGLILYYYAMGWYRQAPGKERELVAAISRRDGDTYYADSVKGRFTISRDNAKNTVYLQMNSLKPEDTAVYYCAAERRWSWVVRDDYWGQGTQVTVSS	low polyreactivity
QVQLVESGGGLVEAGGSLRLSCAAYGFIFSHNTMGCYRQAPGKERELVAGISWSGGNTYYSDSVKGRFTISRDNAKNTGYLQMNRLKPEDTAVYSFNVRFVTGYRYRYGDDYWGQGTQVTVSS	low polyreactivity
QVQLVESGGGLVQAGGSLRLSCAASGRTFNFNAMGWYRQAPGKERELVATITSRGGSTYADSVKGRFTISRDNAKNTVYLQMNSLKPEDTAVYYCNARTPYIRDYQYWRKYDYWGQGTQVTVSS	high polyreactivity
QVQLVESGGGLVQAGGSLRLSCAASGLIFRSYAMGWYRQAPGKERELVARISIRGGSTYYADSVKGRFTISRDNAKNTVYLQLNSLKPEVTAVYYCAAVGYFGGYRYDYWGHGTQVTVSS	high polyreactivity
QVQLVESGGGLVQAGGSLRLSCAASGSTFPVNAMGWYRQAPGKERELVAAISSRGSSTYYADSVKGRFTISRDNAKNTVYLQMNSLKPVDTAVYYCAAPQRYPRFYYWGQGTQVTVSS	high polyreactivity
QVQLVESGGGLVQAGGSLRLSCAASGSIFGAYAMGWYRQAPGKERELVAAITSGGSTNYADSVKGRFTISRDNAKNTVYLQMNSLKPEDTAVYYCAARRRYAKFRYDYWGQGTQVTVSS	high polyreactivity
QVQLVESGGGLVQAGGSLRLSCAASGRIFAVNAMGWYRQAPGTERELVAAITNVASTKYADSVKGRFTISRDNAKNTVYLQMNSLKQEDTAVYYCNADLSQEDWKMDYWGQGTQVTVSS	low polyreactivity
QVQLVESGGGLVQAGGSLRLSCAASGFTFFDNAMGWYRQAPGKERELVAAITWSDGSTYYADSVKGRFTISRDNAKNTVYLQMNSLKAEDTAVYYCAVGFISYSYSNYYDVWYEYYYWGQGTQVTVSS	low polyreactivity
QVQLVESRGGLVPAGGSLRLSCAASGITFYHYAIGWYRQAPVKERELVAAISRSGGSTSYADSVKGRLTISRDNAKITVYLEMNSLIPEDTAVYYCAARLVRESEPLGYWGQGTQVTVSS	high polyreactivity
HVQLVESGGGLVQAGGSLRLSCAASGRTFVVYAMGWDRQAPGKERELVAAITSSGGSTYYADSVKGRFTISRDNAKNTVYLQMNSLKPEDTAVYYCNRVYVRAGVSVAYNYWGQGTQVTVSS	high polyreactivity
QFQLVESGGGLVQAGGSLRLSCAASGITFRDYAMGWYRQAPGKERELVAAISTRGVRTYYADSVKGRFTISRDNAKNTVYLQMNSLKPEDTAVYYCAARSVTYWWVGYEFYYWGQGTQVTVSS	high polyreactivity
QVQLVESGGGLVQAGGSLRLSCAASGRIFTSYVMGWYRQAPGKERELVAAITWGGSTKYADSVKGRFTISRVNAKNTVYLQMNSLKPEDTAVYYCAADGGEYYKGFFAVPYGYWGQGTQVTVSS	low polyreactivity
